Measured values from patent US20200040059A1.

Molecular target: PD-1 (human)
Assay: cell-based or functional assay

Sequence of Full length ECD of PD-L2 (ligand) (Q9BQ51 20-220): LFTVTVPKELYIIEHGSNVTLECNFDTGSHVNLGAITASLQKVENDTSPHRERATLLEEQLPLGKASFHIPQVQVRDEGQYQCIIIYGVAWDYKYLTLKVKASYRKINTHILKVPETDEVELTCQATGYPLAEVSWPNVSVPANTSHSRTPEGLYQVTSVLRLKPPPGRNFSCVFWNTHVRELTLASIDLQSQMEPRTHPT

| Substance | Fold increase over wildtype PD-L2 IgV-Fc, MLR IFN gamma | IFN gamma levels pg/mL, MLR |
| --- | --- | --- |
| PD-L2 IgV-Fc G28V, Q72H, R76G, I86T (Fc fusion) | 1.29 fold | 1780 pg/mL |
| PD-L2 IgV-Fc F2L, H15Q, D46E, T47A, Q72H, R76G, Q82R, V89D (Fc fusion) | 0.85 fold | 1170 pg/mL |
| PD-L2 IgV-Fc H15Q, N18D, T47A, Q72H, V73A, R76G, I86T, V89D (Fc fusion) | 0.77 fold | 1070 pg/mL |
| PD-L2 IgV-Fc I13V, H15Q, I36V, T47A, S67L, V89D (Fc fusion) | 0.99 fold | 1360 pg/mL |
| PD-L2 IgV-Fc I13V, Q72H, R76G, I86T (Fc fusion) | 1.42 fold | 1950 pg/mL |
| PD-L2 IgV-Fc I13V, S39I, E44D, Q82R, V89D (Fc fusion) | 0.68 fold | 936 pg/mL |
| PD-L2 IgV-Fc H15Q, V89D (Fc fusion) | 1.09 fold | 1500 pg/mL |
| PD-L2 IgV-Fc H15Q, T47A, K65R, S67L, Q82R, V89D (Fc fusion) | 0.97 fold | 1340 pg/mL |
| PD-L2 IgV-Fc I13V, H15Q, T47A, Q82R, V89D (SEQ ID NO 1545) (Fc fusion) | 1.26 fold | 1740 pg/mL |
| PD-L2 IgV-Fc I13V, H15Q, E44D, V89D (Fc fusion) | 1.01 fold | 1380 pg/mL |
| PD-L2 IgV-Fc H15Q, N32D, S67L, V89D (Fc fusion) | 0.93 fold | 1290 pg/mL |
| PD-L2 IgV-Fc H15Q, S67L, I86T (Fc fusion) | 0.75 fold | 1030 pg/mL |
| PD-L2 IgV-Fc I13V, H15Q, T47A, S67L, Q72H, R76G, Q82R, V89D (Fc fusion) | 1.13 fold | 1560 pg/mL |
| PD-L2 IgV-Fc I13V, H15Q, L33F, T47A, Q82R, V89D (Fc fusion) | 1.07 fold | 1470 pg/mL |
| PD-L2 IgV-Fc I13V, H15Q, T37A, E44D, S48C, S67L, Q82R, V89D (Fc fusion) | 1.27 fold | 1750 pg/mL |
| PD-L2 IgV-Fc I13V, H15Q, T47A, Q72H, R76G (Fc fusion) | 1.07 fold | 1470 pg/mL |
| PD-L2 IgV-Fc H15Q, S67L, Q72H, R76G, V89D (Fc fusion) | 0.77 fold | 1060 pg/mL |
| PD-L2 IgV-Fc E44D, V89D, W91R (Fc fusion) | 1.13 fold | 1560 pg/mL |
| PD-L2 IgV-Fc I13V, S67L, V89D (Fc fusion) | 0.63 fold | 868 pg/mL |
| PD-L2 IgV-Fc H15Q, V31M, S67L, Q82R, V89D (Fc fusion) | 0.88 fold | 1210 pg/mL |
| PD-L2 IgV-Fc H15Q, Q82R, V89D (Fc fusion) | 0.79 fold | 1080 pg/mL |
| PD-L2 IgV-Fc H15Q, T47A, Q82R (Fc fusion) | 0.96 fold | 1320 pg/mL |
| PD-L2 IgV-Fc I13V, S67L, Q82R, V89D (Fc fusion) | 1 fold | 1370 pg/mL |
| PD-L2 IgV-Fc H15Q, Q72H, V89D (Fc fusion) | 0.92 fold | 1270 pg/mL |

| Substance | Fold increase over wildtype PD-L2 IgV-Fc, MLR IFN gamma | IFN gamma levels pg/mL, MLR |
| --- | --- | --- |
| PD-L2 IgV-Fc E44D (Fc fusion) | 1.09 fold | 1500 pg/mL |
| PD-L2 IgV-Fc H15Q, E44D, R76G, I85F (Fc fusion) | 1.01 fold | 1390 pg/mL |
| PD-L2 IgV-Fc H15Q, S67L, R76G (Fc fusion) | 1.04 fold | 1430 pg/mL |
| PD-L2 IgV-Fc I13V, H15Q, R76G, D77N, Q82R, V89D (Fc fusion) | 0.86 fold | 1190 pg/mL |
| PD-L2 IgV-Fc I13V, H15Q, T47A, E58G, S67L, Q82R, V89D (Fc fusion) | 0.61 fold | 836 pg/mL |
| PD-L2 IgV-Fc H15Q, T47A, S67L, Q82R, V89D (Fc fusion) | 0.87 fold | 1200 pg/mL |
| PD-L2 IgV-Fc H15Q, T47A (Fc fusion) | 1.19 fold | 1640 pg/mL |
| PD-L2 IgV-Fc I13V, H15Q, S39I, E44D, S67L (Fc fusion) | 0.91 fold | 1260 pg/mL |
| PD-L2 IgV-Fc I13V, H15Q, Q82R (Fc fusion) | 1.04 fold | 1430 pg/mL |
| Wild Type PD-L2 IgV (Fc fusion) |  | 1380 pg/mL |
| PD-L2 IgV-Fc I13V, H15Q, T47A, R76G, V89D (Fc fusion) | 0.91 fold | 1250 pg/mL |
| PD-L2 IgV-Fc I13V, H15Q, E44V, T47A, Q82R, V89D (Fc fusion) | 0.92 fold | 1270 pg/mL |
| PD-L2 IgV-Fc H15Q, L33H, S67L, R76G, Q82R, V89D (Fc fusion) | 1.09 fold | 1500 pg/mL |
| PD-L2 IgV-Fc I13V, H15Q, Q72H, R76G, I86T (Fc fusion) | 0.89 fold | 1220 pg/mL |
| PD-L2 IgV-Fc H15Q, T47A, S67L, R76G, Q82R, V89D (Fc fusion) | 0.8 fold | 1100 pg/mL |
| PD-L2 IgV-Fc I13V, H15Q, T47A, Q82R, V89D (SEQ ID NO 1544) (Fc fusion) | 1.05 fold | 1450 pg/mL |
| PD-L2 IgV-Fc H15Q, T47A, H69L, Q82R, V89D (Fc fusion) | 1.26 fold | 1730 pg/mL |
| PD-L2 IgV-Fc I13V, E44D, Q82R, V89D (Fc fusion) | 0.73 fold | 1010 pg/mL |
| PD-L2 IgV-Fc I13V, H15Q, T47A, Q72H, R76G, I86T (Fc fusion) | 0.79 fold | 1090 pg/mL |
| PD-L2 IgV-Fc I13V, H15Q, T47A, H69L, R76G, V89D (Fc fusion) | 0.78 fold | 1080 pg/mL |
| PD-L2 IgV-Fc E44D, S67L, Q72H, Q82R, V89D (Fc fusion) | 0.93 fold | 1280 pg/mL |
| PD-L2 IgV-Fc S67L, V89D (Fc fusion) | 0.89 fold | 1230 pg/mL |
| PD-L2 IgV-Fc H15Q, S67L, R76G, I85F (Fc fusion) | 0.96 fold | 1320 pg/mL |

Other lines, results leading:

| Fold increase over wildtype PD-L2 IgV-Fc, MLR IFN gamma | IFN gamma levels pg/mL, MLR | Substance |
| --- | --- | --- |
| 0.95 fold | 1310 pg/mL | PD-L2 IgV-Fc S39I, V89D (Fc fusion) |
| 1.03 fold | 1420 pg/mL | PD-L2 IgV-Fc H15Q, S39I, I86T (Fc fusion) |
| 1.11 fold | 1530 pg/mL | PD-L2 IgV-Fc I13V, H15Q, R76G, I85F (Fc fusion) |
| 1.06 fold | 1460 pg/mL | PD-L2 IgV-Fc H15Q, T47A, Q72H, R76G (Fc fusion) |
| 1.17 fold | 1620 pg/mL | PD-L2 IgV-Fc Q82R, V89D (Fc fusion) |
|  | 1170 pg/mL | Full length ECD of PD-L2 (ligand) |
| 0.87 fold | 1190 pg/mL | PD-L2 IgV-Fc N32D, S67L, V89D (Fc fusion) |
| 0.74 fold | 1020 pg/mL | PD-L2 IgV-Fc S67L, I86T (Fc fusion) |
| 0.93 fold | 1280 pg/mL | PD-L2 IgV-Fc S67L, I85F (Fc fusion) |
| 1.25 fold | 1730 pg/mL | PD-L2 IgV-Fc H15Q, R76G, I85F (SEQ ID NO 1500) (Fc fusion) |
| 0.68 fold | 941 pg/mL | PD-L2 IgV-Fc H15Q, S39I, E44D, Q72H, V75G, R76G, Q82R, V89D (Fc fusion) |
| 0.68 fold | 934 pg/mL | PD-L2 IgV-Fc H15Q, Q72H, Q74R, R76G, I86T (Fc fusion) |
| 1.34 fold | 1850 pg/mL | PD-L2 IgV-Fc H15Q, C23S, I86T (Fc fusion) |
| 0.82 fold | 1120 pg/mL | PD-L2 IgV-Fc I13V, H15Q, V89D (Fc fusion) |
| 0.74 fold | 1010 pg/mL | PD-L2 IgV-Fc I13V, H15Q, S67L, I86T (Fc fusion) |
| 1.1 fold | 1510 pg/mL | PD-L2 IgV-Fc H15Q, K65R (Fc fusion) |
| 1.24 fold | 1700 pg/mL | PD-L2 IgV-Fc I13V, H15Q, T47A, Q82R (Fc fusion) |
| 1.16 fold | 1600 pg/mL | PD-L2 IgV-Fc H15Q, T47A, Q72H, R76G, I86T (Fc fusion) |
| 1.44 fold | 1980 pg/mL | PD-L2 IgV-Fc N24D (Fc fusion) |
| 1.1 fold | 1510 pg/mL | PD-L2 IgV-Fc E59G, Q82R (Fc fusion) |
| 1.11 fold | 1530 pg/mL | PD-L2 IgV-Fc I12V, I13V, H15Q, T47A, Q82R, V89D (Fc fusion) |
